Sequences and labels used below:
B1: lipocalin mutein of SEQ ID NO: 13 (designed binder)
chain: QDSTSDLIPAPPLSKVPLQQNFQDNQFQGKWYVVGRAGNLGLREDKDPPKMWATIYELKEDKSYDVTNVRFARKKCMYSIGTFVPGSQPGEFTLGQIKSEPGSTANLVRVVSTNYNQHAMVFFKEVYQNREIFFITLYGRTKELTSELKENFIRFSKSLGLPENHIVFPVPIDQCIDGSAWSHPQFEK
notes: hNGAL (Lcn2) mutein; also called optimized GPC3 specific lipocalin mutein
B2: lipocalin mutein of SEQ ID NO: 14 (designed binder)
chain: B1 chain with L40V, R73G, C76V, M77K, S79T, S103N, N106T, C175A
notes: as for B1
B3: lipocalin mutein of SEQ ID NO: 15 (designed binder)
chain: QDSTSDLIPAPPLSKVPLQQNFQDNQFQGKWYVVGRAGNVGLREDKDPPKMRATIYELKEDKSYDVTGVRFGEKKIKYSIGTFVPGSQPGEFTLGQIKSQPGDTANLVRVVSTNYNQHAMVFFKEVYQNREIFFIILYGRTKELTSELKENFIRFSKSLGLPENHIVFPVPIDQAIDGSAWSHPQFEK
notes: as for B1
B4: lipocalin mutein of SEQ ID NO: 16 (designed binder)
chain: B3 chain with G72D, E73S, I76V, K77T, Q100E, D103N
notes: as for B1
B5: negative control lipocalin (SEQ ID NO: 2) (other)
chain: QDSTSDLIPAPPLSKVPLQQNFQDNQFHGKWYVVGLAGNAILREDKDPQKMYATIYELKEDKSYNVTSVLFRKKKCDYWIRTFVPGSQPGEFTLGNIKSYPGLTSYLVRVVSTNYNQHAMVFFKKVSQNREYFKITLYGRTKELTSELKENFIRFSKSLGLPENHIVFPVPIDQCIDG

As usually defined, the EC50 is the concentration giving half of the maximal effect. High values mean lower potency in that assay, low ones higher potency in that assay. As a reminder, the Kd is the concentration at which binding is half-saturated. As usually defined, the koff is a measure of how fast the partners let go of each other. Read a low koff as a long-lived complex. Broadly, the kon is the rate constant with which the complex forms.

Residue numbers refer to the chain shown, from its start.

T5 sequence (P51654 25-559 limits assumed): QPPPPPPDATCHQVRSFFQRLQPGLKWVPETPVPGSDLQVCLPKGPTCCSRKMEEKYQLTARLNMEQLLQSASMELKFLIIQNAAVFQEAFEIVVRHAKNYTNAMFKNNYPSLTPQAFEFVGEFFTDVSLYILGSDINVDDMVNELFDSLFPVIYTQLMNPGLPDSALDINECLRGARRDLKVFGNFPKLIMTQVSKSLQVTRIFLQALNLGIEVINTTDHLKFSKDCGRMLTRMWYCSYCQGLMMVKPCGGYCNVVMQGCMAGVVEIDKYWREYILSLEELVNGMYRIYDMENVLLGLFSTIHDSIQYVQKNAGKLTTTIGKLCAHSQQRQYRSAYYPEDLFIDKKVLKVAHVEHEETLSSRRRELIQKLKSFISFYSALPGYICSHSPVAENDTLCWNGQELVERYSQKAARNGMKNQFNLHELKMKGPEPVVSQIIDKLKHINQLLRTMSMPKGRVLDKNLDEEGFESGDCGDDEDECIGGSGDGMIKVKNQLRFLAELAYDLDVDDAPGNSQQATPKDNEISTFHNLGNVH

The target of one assay is T1, human GPC3 on stably transfected SK-HEP-1 cells (human, UniProt P51654 25-554).
T1 construct: whole, on cells; also called SK-HEP-1::human GPC3
T1 sequence (P51654 25-554 limits assumed): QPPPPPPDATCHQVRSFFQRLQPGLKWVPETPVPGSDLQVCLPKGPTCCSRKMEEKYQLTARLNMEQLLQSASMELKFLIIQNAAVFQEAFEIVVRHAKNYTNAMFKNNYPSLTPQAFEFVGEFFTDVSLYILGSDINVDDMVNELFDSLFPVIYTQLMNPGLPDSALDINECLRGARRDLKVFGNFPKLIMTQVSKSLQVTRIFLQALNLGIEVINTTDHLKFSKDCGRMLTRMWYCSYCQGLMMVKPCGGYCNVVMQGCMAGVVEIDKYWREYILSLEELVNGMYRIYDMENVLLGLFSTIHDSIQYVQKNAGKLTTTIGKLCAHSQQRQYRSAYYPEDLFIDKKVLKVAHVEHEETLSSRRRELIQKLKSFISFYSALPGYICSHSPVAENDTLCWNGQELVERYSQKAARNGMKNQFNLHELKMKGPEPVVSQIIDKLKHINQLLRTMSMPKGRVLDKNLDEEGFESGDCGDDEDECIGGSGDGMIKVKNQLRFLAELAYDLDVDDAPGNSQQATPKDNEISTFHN
The assay can be described thus: MSD-based (ECL) cell binding assay on transfected SK-HEP-1 cells. As to the method: (§1) Binding of optimized lipocalin muteins of SEQ ID NOs: 5-16 to human, cynomolgus and mouse GPC3 compared to SEQ ID NOs: 3 and 4 was tested on SK-HEP-1 cells using an ECL format (FIG. 1). In this experiment, dilution series of lipocalin muteins were incubated on MSD plates coated with human, cynomolgus or mouse GPC3 overexpressing SK-HEP-1 cells.
(§2) SEQ ID NOs: 3, 4, 5, 7, 8, 9, 10, 12, 13, 14, 15 and 16 (using 1000 nM as starting concentration) were serially diluted at a 1:3 ratio down to the picomolar range in PBS/Casein. 20 μl of the dilution series were transferred to the SK-HEP-1-coated plates for 1 hour at room temperature.
(§3) To allow for detection and quantification of bound GPC3 specific lipocalin muteins, the residual supernatants were discarded and 20 μl of a mixture of rabbit anti scaffold antibody (2 μg/ml) and Sulfotag labelled anti rabbit antibody (5 μg/ml) prepared in PBS/casein was added to the wells and incubated for 1 h at RT. After washing, 35 μl surfactant-free reading buffer was added to each well and the ECL intensity of every well was read using a MSD reader.
With B1, the midpoint of the response, the EC50, lay at 0.9 nM.

In turn, B2 had an EC50 of 9.5 nM. Against the preceding molecule, the EC50 is about 11-fold higher.

Take B3: the 50% effective concentration (EC50) was determined as 1.6 nM.

On to B4, for which the EC50 came to 2.2 nM.

A further assay concerns the target T2, cynomolgus GPC3 on stably transfected SK-HEP-1 cells (cynomolgus, UniProt A0A2K5VK50 24-553).
T2 construct: whole, on cells; also called SK-HEP-1::cyno GPC3; SK-HEP-1::cynomolugus GPC3
Described as above. As to the method:
as §1, §2, §3
Take B1: a half-maximal effect (EC50) was put at 0.6 nM.

In the case of B2, the EC50 stood at 15.4 nM.

The molecule B3 registered an EC50 of 1.6 nM.

As for B4, it took 2.5 nM to reach a half-maximal effect (EC50). This EC50 lies about 1.6-fold higher than the previous one.

The target in a further assay is T3, mouse GPC3 on stably transfected SK-HEP-1 cells (mouse, UniProt Q8CFZ4 25-553).
T3 construct: whole, on cells; also called SK-HEP-1::mouse GPC3; murine GPC3
T3 sequence (Q8CFZ4 25-553 limits assumed): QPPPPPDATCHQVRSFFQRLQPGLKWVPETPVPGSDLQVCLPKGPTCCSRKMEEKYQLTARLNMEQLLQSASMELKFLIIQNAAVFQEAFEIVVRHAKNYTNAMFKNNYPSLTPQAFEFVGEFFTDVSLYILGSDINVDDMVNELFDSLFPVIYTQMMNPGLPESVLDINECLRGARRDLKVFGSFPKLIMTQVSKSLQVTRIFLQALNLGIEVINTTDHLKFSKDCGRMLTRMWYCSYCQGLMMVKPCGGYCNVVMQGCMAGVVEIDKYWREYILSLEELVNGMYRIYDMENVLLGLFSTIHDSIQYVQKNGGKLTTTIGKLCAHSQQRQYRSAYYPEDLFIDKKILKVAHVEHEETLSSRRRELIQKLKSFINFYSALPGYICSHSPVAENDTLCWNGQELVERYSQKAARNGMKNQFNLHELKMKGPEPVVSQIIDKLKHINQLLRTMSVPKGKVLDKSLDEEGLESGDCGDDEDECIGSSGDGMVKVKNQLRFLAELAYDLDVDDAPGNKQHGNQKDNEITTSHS
The description is as above. As to the method: as §1, §2, §3
Molecule B1 gave an EC50 of 2.9 nM.

The molecule B2 came in with an EC50 of 6.7 nM.

Turning to B3, a half-maximal response (EC50) required 4.8 nM.

The molecule B4 yielded an EC50 of 4.4 nM.

The next assay deals with T4, murine GPC3 (6938-GP; R&D systems), biotinylated (murine, UniProt Q8CFZ4 25-558, limits assumed, biotinylated using standard NHS chemistry).
T4 construct: Bought protein; also called mouse GPC3
T4 sequence (Q8CFZ4 25-558 limits assumed): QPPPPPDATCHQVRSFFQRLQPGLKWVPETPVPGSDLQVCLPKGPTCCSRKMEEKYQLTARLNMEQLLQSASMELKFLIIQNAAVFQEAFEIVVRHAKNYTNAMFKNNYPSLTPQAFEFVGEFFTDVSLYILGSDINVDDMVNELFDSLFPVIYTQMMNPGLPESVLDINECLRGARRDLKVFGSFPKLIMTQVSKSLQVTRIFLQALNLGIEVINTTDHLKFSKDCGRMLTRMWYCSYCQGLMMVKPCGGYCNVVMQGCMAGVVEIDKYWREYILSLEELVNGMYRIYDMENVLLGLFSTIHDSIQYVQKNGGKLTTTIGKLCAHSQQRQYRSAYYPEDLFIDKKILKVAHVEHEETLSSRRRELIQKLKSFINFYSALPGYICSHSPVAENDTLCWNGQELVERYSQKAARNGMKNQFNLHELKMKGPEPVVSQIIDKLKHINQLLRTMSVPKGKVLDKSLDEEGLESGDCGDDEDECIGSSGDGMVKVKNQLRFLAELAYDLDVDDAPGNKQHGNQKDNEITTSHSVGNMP
The assay can be described thus: SPR (Biacore T200), biotinylated GPC3 captured on chip, mutein in flow. As to the method: (§4) SPR analysis of the binding of the optimized Lcn2 muteins to human and mouse GPC3 was performed at 25° C. on a Biacore T200 instrument (GE Healthcare) using HBS-EP+ (1x; BR-1006-69; GE Healthcare) as running buffer. The Biotin CAPture Kit (GE Healthcare) was used to immobilize biotinylated GPC3 to a chip surface. Human GPC3 (2119-GP; R&D systems) and murine GPC3 (6938-GP; R&D systems) were biotinylated using standard NHS chemistry. Undiluted Biotin CAPture Reagent (streptavidin conjugated with ss-DNA oligo) was captured on a Sensor Chip CAP with the pre-immobilized complementary ss-DNA oligo. Thereafter, biotinylated human or murine GPC3 at 1 μg/ml was applied for 300 s at a flow rate of […].
(§5) Lcn2 muteins were applied in concentrations of 10 nM, 40 nM and 160 nM at a flow rate of 30 μL/min. The dilutions were injected with association times of 180 s and dissociation times of 600 s to obtain ka and kd information. Regeneration of the chip surface was achieved by injecting 6 M Guanidinium-HCl+0.25 M NaOH (120 s) with a flow rate of 10 μL/min. Injection of regeneration solutions was followed by an extra wash step with H₂O and a stabilization period of 120 s.
(§6) The data were double-referenced by subtraction of the corresponding signals measured for the control channel (loaded with Biotin CAPture reagent only) and by subtraction of buffer injections from the binding responses. Association rate constant ka and dissociation rate constant kd for the binding reaction were determined using Biacore T200 Evaluation Software V2.0 for data processing and kinetic fitting. The data were globally fit with 1:1 binding model.
For the molecule B1, binding was put at a Kd of 0.09 nM, the koff came to 0.00024 s⁻¹ and the kon was found to be 2.7e+06 M⁻¹ s⁻¹.

Turning to B2, binding was characterised by a dissociation constant (Kd) of 1.59 nM, the off-rate (koff) came to 0.0031 s⁻¹ and the association rate constant (kon) worked out at 2e+06 M⁻¹ s⁻¹.

Regarding B3, the dissociation constant Kd worked out at 0.072 nM, the off-rate (koff) came to 9.1e-05 s⁻¹ and the on-rate (kon) was determined as 1.3e+06 M⁻¹ s⁻¹.

B4 yielded a Kd of 0.311 nM, a koff of 0.00019 s⁻¹ and an association rate constant (kon) of 610000 M⁻¹ s⁻¹.

A further assay has as its target T5, Human GPC3 (2119-GP; R&D systems), biotinylated (human, UniProt P51654 25-559, biotinylated using standard NHS chemistry).
T5 construct: Bought protein; also called human Glypican-3
The description is as above. As to the method:
as §4, §5, §6
For B1, the Kd amounted to 0.07 nM, the koff was 0.00018 s⁻¹ and the on-rate constant (kon) was found to be 2.6e+06 M⁻¹ s⁻¹.

B2 returned a Kd of 0.819 nM, a koff of 0.002 s⁻¹ and a kon of 2.4e+06 M⁻¹ s⁻¹.

B3 returned a Kd of 0.035 nM, a koff of 4.9e-05 s⁻¹ and a kon of 1.4e+06 M⁻¹ s⁻¹.

In the case of B4, binding was put at a Kd of 0.171 nM, the dissociation rate constant (koff) stood at 0.00011 s⁻¹ and the kon is 670000 M⁻¹ s⁻¹.

Another assay concerns the target T1, human GPC3 on stably transfected …. The assay is described as follows: MSD-based (ECL) cell binding assay on immobilized SK-HEP-1 cells transfected with human GPC3; detection with rabbit anti-scaffold antibody and Sulfotag-labelled anti-rabbit antibody. As to the method: as §1, §2, §3
Turning to B5, the binding result is listed as “no binding (tested: 1000 nM)”.

The values are drawn from patent publication US20180141988A1 (Pieris, published 2018).
